The term Kd denotes a measure of binding affinity in units of concentration.

The test has as its target GST-MoMkk1 (Magnaporthe oryzae) (UniProt G4N6Z6). Put plainly: MST.

Take His-MoPtc1 (enzyme): the Kd was 1050 nM.
On to His-MoPtc2 (enzyme), for which the Kd was 2270 nM.

The record behind these values is paper PMC9276948.
